Laboratory results published in patent US20230114801A1 (SYSTIMMUNE, published 2023).

Legend:
[1] = biological target: T1, human CD3 (human, UniProt P07766 23-126; P04234 22-105); test: BLI (Octet), binder on AHC sensor, 100 nM human CD3, 1:1 fit
T1 construct: also called His-tagged human CD3; human CD3 (Acro CDD-H52W1)

[2] = biological target: T2, human HER3 (human, UniProt P21860 20-643); test: BLI (Octet), binder on AHC sensor, 200 nM human HER3, 1:1 fit
T2 construct: Soluble antigen in Octet; bought; also called human HER3 (Acro ER3-H5223)

[3] = biological target: T3, human EGFR (human, UniProt P00533 25-645, limits assumed); test: BLI (Octet), binder on AHC sensor, 200 nM human EGFR, 1:1 fit
T3 construct: Soluble antigen in Octet; construct not described

Row | Binder | Kd [1] [µM] | Kd [2] [µM] | Kd [3] [µM]
1 | SI-75X4 (other, tri-miniGNC; D1 αEGFR VHH, D2 αHER3 VHH, D3 αCD3 (Fab)) chain 1: EVQLQESGGGLVQAGDSLSLSCLVSGRSFNSYTMGWFRQAPGKEREFVAAILWSGPTTYYADSVKGRFTISRDNAKNTVYLQMNSLKPEDTAVYYCAAALGVLVLAPGNVYSYWGQGTQVTVSSGGGGSGGGGSEVQLVESGGGLVQPGGSLRLSCAASGFTISTNAMSWVRQAPGKGLEWIGVITGRDITYYASWAKGRFTISRDNSKNTLYLQMSSLRSEDTAVYYCARDGGSSAITSNNIWGQGTLVTVSSASTKGPSVFPLAPSSKSTSGGTAALGCLVKDYFPEPVTVSWNSGALTSGVHTFPAVLQSSGLYSLSSVVTVPSSSLGTQTYICNVNHKPSNTKVDKRVEPKSCDKTHTCPPCPAPEAAGGPSVFLFPPKPKDTLMISRTPEVTCVVVDVSHEDPEVKFNWYVDGVEVHNAKTKPREEQYNSTYRVVSVLTVLHQDWLNGKEYKCAVSNKALPAPIEKTISKAKGQPREPQVYTLPPSRDELTKNQVSLSCAVKGFYPSDIAVEWESNGQPENNYKTTPPVLDSDGSFFLVSKLTVDKSRWQQGNVFSCSVMHEALHNHYTQKSLSLSPG chain 2: QVQLVQSGGGLVQAGGSLSLSCAFSGRTFSMYTMGWFRQAPGKEREFVAANRGRGLSPDIADSVNGRFTISRDNAKNTLYLQMDSLKPEDTAVYYCAADLQYGSSWPQRSSAEYDYWGQGTTVTVSSGGGGSGGGGSDVVMTQSPSTLSASVGDRVTINCQASESISSWLAWYQQKPGKAPKLLIYEASKLASGVPSRFSGSGSGTEFTLTISSLQPDDFATYYCQGYFYFISRTYVNSFGGGTKVEIKRTVAAPSVFIFPPSDEQLKSGTASVVCLLNNFYPREAKVQWKVDNALQSGNSQESVTEQDSKDSTYSLSSTLTLSKADYEKHKVYACEVTHQGLSSPVTKSFNRGECGGDKTHTCPPCPAPEAAGGPSVFLFPPKPKDTLMISRTPEVTCVVVDVSHEDPEVKFNWYVDGVEVHNAKTKPREEQYNSTYRVVSVLTVLHQDWLNGKEYKCAVSNKALPAPIEKTISKAKGQPREPQVYTLPPSRDELTKNQVSLWCLVKGFYPSDIAVEWESNGQPENNYKTTPPVLDSDGSFFLYSKLTVDKSRWQQGNVFSCSVMHEALHNRFTQKSLSLSPG | 0.0263 | 0.00768 | 0.0515
2 | SI-75X9 (bispecific antibody, human IgG1, kappa, L234A L235A, bi-miniGNC; D2 αHER3 VHH, D3 αCD3* (Fab)) chain 1: QVQLQESGGRLVQPGEPLSLTCKTSGIDLSSNAIGWVRQAPGKGLEWIGVIFGSGNTYYASWAKGRFTISRSTSTVYLKMNSLRSEDTAIYYCARGGYSSDIWGQGTLVTVSSASTKGPSVFPLAPSSKSTSGGTAALGCLVKDYFPEPVTVSWNSGALTSGVHTFPAVLQSSGLYSLSSVVTVPSSSLGTQTYICNVNHKPSNTKVDKRVEPKSCDKTHTCPPCPAPEAAGGPSVFLFPPKPKDTLMISRTPEVTCVVVDVSHEDPEVKFNWYVDGVEVHNAKTKPREEQYNSTYRVVSVLTVLHQDWLNGKEYKCAVSNKALPAPIEKTISKAKGQPREPQVYTLPPSRDELTKNQVSLSCAVKGFYPSDIAVEWESNGQPENNYKTTPPVLDSDGSFFLVSKLTVDKSRWQQGNVFSCSVMHEALHNHYTQKSLSLSPG chain 2: QVQLVQSGGGLVQAGGSLSLSCAFSGRTFSMYTMGWFRQAPGKEREFVAANRGRGLSPDIADSVNGRFTISRDNAKNTLYLQMDSLKPEDTAVYYCAADLQYGSSWPQRSSAEYDYWGQGTTVTVSSGGGGSGGGGSDPQLTQSPSSLSATVGQRVTINCQSSQSVAKNNNLAWFQQKPGKPPKLLIYSASTLAAGVPSRFSGSGSGTQFTLTITRVQSEDFATYYCSARDSGNIQSFGGGTRVEIKRTVAAPSVFIFPPSDEQLKSGTASVVCLLNNFYPREAKVQWKVDNALQSGNSQESVTEQDSKDSTYSLSSTLTLSKADYEKHKVYACEVTHQGLSSPVTKSFNRGECGGDKTHTCPPCPAPEAAGGPSVFLFPPKPKDTLMISRTPEVTCVVVDVSHEDPEVKFNWYVDGVEVHNAKTKPREEQYNSTYRVVSVLTVLHQDWLNGKEYKCAVSNKALPAPIEKTISKAKGQPREPQVYTLPPSRDELTKNQVSLWCLVKGFYPSDIAVEWESNGQPENNYKTTPPVLDSDGSFFLYSKLTVDKSRWQQGNVFSCSVMHEALHNRFTQKSLSLSPG | 0.0842 | 0.00386 | 

The remaining lines, values ahead:

Row | Kd [1] [µM] | Kd [2] [µM] | Kd [3] [µM] | Binder
3 | 0.068 | 0.00458 | 0.0148 | SI-75X17 (other, tri-miniGNC; D1 αEGFR VHH, D2 αHER3 VHH, D3 αCD3* (Fab)) chain 1: EVQLQESGGGLVQAGDSLSLSCLVSGRSFNSYTMGWFRQAPGKEREFVAAILWSGPTTYYADSVKGRFTISRDNAKNTVYLQMNSLKPEDTAVYYCAAALGVLVLAPGNVYSYWGQGTQVTVSSGGGGSGGGGSQVQLQESGGRLVQPGEPLSLTCKTSGIDLSSNAIGWVRQAPGKGLEWIGVIFGSGNTYYASWAKGRFTISRSTSTVYLKMNSLRSEDTAIYYCARGGYSSDIWGQGTLVTVSSASTKGPSVFPLAPSSKSTSGGTAALGCLVKDYFPEPVTVSWNSGALTSGVHTFPAVLQSSGLYSLSSVVTVPSSSLGTQTYICNVNHKPSNTKVDKRVEPKSCDKTHTCPPCPAPEAAGGPSVFLFPPKPKDTLMISRTPEVTCVVVDVSHEDPEVKFNWYVDGVEVHNAKTKPREEQYNSTYRVVSVLTVLHQDWLNGKEYKCAVSNKALPAPIEKTISKAKGQPREPQVYTLPPSRDELTKNQVSLSCAVKGFYPSDIAVEWESNGQPENNYKTTPPVLDSDGSFFLVSKLTVDKSRWQQGNVFSCSVMHEALHNHYTQKSLSLSPG chain 2: QVQLVQSGGGLVQAGGSLSLSCAFSGRTFSMYTMGWFRQAPGKEREFVAANRGRGLSPDIADSVNGRFTISRDNAKNTLYLQMDSLKPEDTAVYYCAADLQYGSSWPQRSSAEYDYWGQGTTVTVSSGGGGSGGGGSDPQLTQSPSSLSATVGQRVTINCQSSQSVAKNNNLAWFQQKPGKPPKLLIYSASTLAAGVPSRFSGSGSGTQFTLTITRVQSEDFATYYCSARDSGNIQSFGGGTRVEIKRTVAAPSVFIFPPSDEQLKSGTASVVCLLNNFYPREAKVQWKVDNALQSGNSQESVTEQDSKDSTYSLSSTLTLSKADYEKHKVYACEVTHQGLSSPVTKSFNRGECGGDKTHTCPPCPAPEAAGGPSVFLFPPKPKDTLMISRTPEVTCVVVDVSHEDPEVKFNWYVDGVEVHNAKTKPREEQYNSTYRVVSVLTVLHQDWLNGKEYKCAVSNKALPAPIEKTISKAKGQPREPQVYTLPPSRDELTKNQVSLWCLVKGFYPSDIAVEWESNGQPENNYKTTPPVLDSDGSFFLYSKLTVDKSRWQQGNVFSCSVMHEALHNRFTQKSLSLSPG
4 | 0.0644 | 0.0105 | 0.0206 | SI-75X19 (other, tri-miniGNC; D3 αCD3* (Fab), D4 αEGFR VHH, D5 αHER3 VHH) chain 1: QVQLQESGGRLVQPGEPLSLTCKTSGIDLSSNAIGWVRQAPGKGLEWIGVIFGSGNTYYASWAKGRFTISRSTSTVYLKMNSLRSEDTAIYYCARGGYSSDIWGQGTLVTVSSASTKGPSVFPLAPSSKSTSGGTAALGCLVKDYFPEPVTVSWNSGALTSGVHTFPAVLQSSGLYSLSSVVTVPSSSLGTQTYICNVNHKPSNTKVDKRVEPKSCDKTHTCPPCPAPEAAGGPSVFLFPPKPKDTLMISRTPEVTCVVVDVSHEDPEVKFNWYVDGVEVHNAKTKPREEQYNSTYRVVSVLTVLHQDWLNGKEYKCAVSNKALPAPIEKTISKAKGQPREPQVYTLPPSRDELTKNQVSLSCAVKGFYPSDIAVEWESNGQPENNYKTTPPVLDSDGSFFLVSKLTVDKSRWQQGNVFSCSVMHEALHNHYTQKSLSLSPGGGGGSGGGGSEVQLQESGGGLVQAGDSLSLSCLVSGRSFNSYTMGWFRQAPGKEREFVAAILWSGPTTYYADSVKGRFTISRDNAKNTVYLQMNSLKPEDTAVYYCAAALGVLVLAPGNVYSYWGQGTQVTVSS chain 2: DPQLTQSPSSLSATVGQRVTINCQSSQSVAKNNNLAWFQQKPGKPPKLLIYSASTLAAGVPSRFSGSGSGTQFTLTITRVQSEDFATYYCSARDSGNIQSFGGGTRVEIKRTVAAPSVFIFPPSDEQLKSGTASVVCLLNNFYPREAKVQWKVDNALQSGNSQESVTEQDSKDSTYSLSSTLTLSKADYEKHKVYACEVTHQGLSSPVTKSFNRGECGGDKTHTCPPCPAPEAAGGPSVFLFPPKPKDTLMISRTPEVTCVVVDVSHEDPEVKFNWYVDGVEVHNAKTKPREEQYNSTYRVVSVLTVLHQDWLNGKEYKCAVSNKALPAPIEKTISKAKGQPREPQVYTLPPSRDELTKNQVSLWCLVKGFYPSDIAVEWESNGQPENNYKTTPPVLDSDGSFFLYSKLTVDKSRWQQGNVFSCSVMHEALHNRFTQKSLSLSPGGGGGSGGGGSQVQLVQSGGGLVQAGGSLSLSCAFSGRTFSMYTMGWFRQAPGKEREFVAANRGRGLSPDIADSVNGRFTISRDNAKNTLYLQMDSLKPEDTAVYYCAADLQYGSSWPQRSSAEYDYWGQGTTVTVSS
5 | 0.0381 | 0.0137 |  | SI-75X15 (bispecific antibody, human IgG1, kappa, L234A L235A, bi-miniGNC; D3 αCD3* (Fab), D5 αHER3 VHH) chain 1: QVQLQESGGRLVQPGEPLSLTCKTSGIDLSSNAIGWVRQAPGKGLEWIGVIFGSGNTYYASWAKGRFTISRSTSTVYLKMNSLRSEDTAIYYCARGGYSSDIWGQGTLVTVSSASTKGPSVFPLAPSSKSTSGGTAALGCLVKDYFPEPVTVSWNSGALTSGVHTFPAVLQSSGLYSLSSVVTVPSSSLGTQTYICNVNHKPSNTKVDKRVEPKSCDKTHTCPPCPAPEAAGGPSVFLFPPKPKDTLMISRTPEVTCVVVDVSHEDPEVKFNWYVDGVEVHNAKTKPREEQYNSTYRVVSVLTVLHQDWLNGKEYKCAVSNKALPAPIEKTISKAKGQPREPQVYTLPPSRDELTKNQVSLSCAVKGFYPSDIAVEWESNGQPENNYKTTPPVLDSDGSFFLVSKLTVDKSRWQQGNVFSCSVMHEALHNHYTQKSLSLSPG chain 2: DPQLTQSPSSLSATVGQRVTINCQSSQSVAKNNNLAWFQQKPGKPPKLLIYSASTLAAGVPSRFSGSGSGTQFTLTITRVQSEDFATYYCSARDSGNIQSFGGGTRVEIKRTVAAPSVFIFPPSDEQLKSGTASVVCLLNNFYPREAKVQWKVDNALQSGNSQESVTEQDSKDSTYSLSSTLTLSKADYEKHKVYACEVTHQGLSSPVTKSFNRGECGGDKTHTCPPCPAPEAAGGPSVFLFPPKPKDTLMISRTPEVTCVVVDVSHEDPEVKFNWYVDGVEVHNAKTKPREEQYNSTYRVVSVLTVLHQDWLNGKEYKCAVSNKALPAPIEKTISKAKGQPREPQVYTLPPSRDELTKNQVSLWCLVKGFYPSDIAVEWESNGQPENNYKTTPPVLDSDGSFFLYSKLTVDKSRWQQGNVFSCSVMHEALHNRFTQKSLSLSPGGGGGSGGGGSQVQLVQSGGGLVQAGGSLSLSCAFSGRTFSMYTMGWFRQAPGKEREFVAANRGRGLSPDIADSVNGRFTISRDNAKNTLYLQMDSLKPEDTAVYYCAADLQYGSSWPQRSSAEYDYWGQGTTVTVSS
